Data reported in patent EP3917571B1.

Molecular target: ERp57 (PDIA3), human, endogenous in MDA-MB-231 ER-G2 cells (human) (UniProt P30101)
Test: proximity ligation assay on live, intact cells (probes ab10286 and ab13506)

UniProt P30101, sequence (P30101 25-505): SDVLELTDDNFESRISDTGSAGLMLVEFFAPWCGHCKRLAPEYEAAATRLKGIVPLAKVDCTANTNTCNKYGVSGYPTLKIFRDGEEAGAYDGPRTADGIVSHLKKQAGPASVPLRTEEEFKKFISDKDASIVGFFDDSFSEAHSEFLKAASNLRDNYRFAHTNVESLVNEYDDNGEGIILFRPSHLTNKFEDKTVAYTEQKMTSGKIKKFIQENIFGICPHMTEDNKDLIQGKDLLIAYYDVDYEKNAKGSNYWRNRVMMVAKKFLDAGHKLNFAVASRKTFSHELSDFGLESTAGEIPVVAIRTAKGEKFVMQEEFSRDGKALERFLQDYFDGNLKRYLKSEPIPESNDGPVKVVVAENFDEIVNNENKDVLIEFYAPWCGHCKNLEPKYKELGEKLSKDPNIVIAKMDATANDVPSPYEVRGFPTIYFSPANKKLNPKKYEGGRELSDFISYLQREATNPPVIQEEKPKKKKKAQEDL

- proximity ligation assay signal, fold increase in MDA ER-G2 over wild-type MDA cells: 10 fold
B1: Calnexin (Cnx), human, endogenous in MDA-MB-231 ER-G2 and Huh7 cells (protein, UniProt P27824 21-592, looked up)
chain: HDGHDDDVIDIEDDLDDVIEEVEDSKPDTTAPPSSPKVTYKAPVPTGEVYFADSFDRGTLSGWILSKAKKDDTDDEIAKYDGKWEVEEMKESKLPGDKGLVLMSRAKHHAISAKLNKPFLFDTKPLIVQYEVNFQNGIECGGAYVKLLSKTPELNLDQFHDKTPYTIMFGPDKCGEDYKLHFIFRHKNPKTGIYEEKHAKRPDADLKTYFTDKKTHLYTLILNPDNSFEILVDQSVVNSGNLLNDMTPPVNPSREIEDPEDRKPEDWDERPKIPDPEAVKPDDWDEDAPAKIPDEEATKPEGWLDDEPEYVPDPDAEKPEDWDEDMDGEWEAPQIANPRCESAPGCGVWQRPVIDNPNYKGKWKPPMIDNPSYQGIWKPRKIPNPDFFEDLEPFRMTPFSAIGLELWSMTSDIFFDNFIICADRRIVDDWANDGWGLKKAADGAAEPGVVGQMIEAAEERPWLWVVYILTVALPVFLVILFCCSGKKQTSGMEYKKTDAPQPDVKEEEEEKEEEKDKGDEEEEGEEKLEEKQKSDAEEDGGTVSQEEEDRKPKAEEDEILNRSPRNRKPRRE
modifications: O-GalNAc (Tn) glycosylation mapped at T50, T59, T66, T79, S81 and S86 after GALA activation
